Experimental data published in paper PMC8336959.

Target: Atto488-labeled GRB2-SH2 domain (UniProt P62993)
Experiment: MST

Atto488-labeled GRB2-SH2 domain, sequence (P62993 60-152): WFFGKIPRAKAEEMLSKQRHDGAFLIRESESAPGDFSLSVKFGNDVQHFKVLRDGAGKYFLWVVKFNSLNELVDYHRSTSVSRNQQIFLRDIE

Dual-phosphorylated H2AX (pH2AX) peptide
Kd: 2800 nM
